± gives the standard deviation of the averaged measurements.
The sequences below were run on ATP (assay: switch fluorescence ratio, 500 uM ATP over buffer (Cy3 cluster intensity, sum of 5 cycles each) (fold (ratio)); higher = stronger signal-on switching upon ATP binding; sequences stand for … in TCGTCGGCAGCGTCAGATGTGTATAAGAGACAGTTTTTTTTTTTTTTTTTTTTTTTTT…TC). Settings: aptamer strand: ATP DNA aptamer (quencher-CACCTGGGGGAGTATTGCGGAGGAAGG + anchor), 100 nM annealed; ATP concentration: 500 uM.
Procedure, shortened: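 Imaging in selection buffer was followed by imaging after 15 min with 500 uM ATP at 22 °C, for Cy3-labelled switching-strand clusters annealed to 100 nM quencher-labelled ATP aptamer on a modified Illumina MiSeq flow-cell. Five of these buffer/ATP cycles ran, separated by NaOH stripping and re-annealing. The fluorescence ratio per cluster is summed target-cycle over summed buffer-cycle Cy3 intensity, averaged per switch-domain sequence; clusters outside 100-1000 RFU were removed.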
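Further: ATP exposure 15 min at 22 °C before imaging.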

| Sequence | switch fluorescence ratio |
| --- | --- |
| TCCATTTTCG | 0.984 ± 0.025 |
| GACTAAAGTG | 1.01 ± 0.044 |
| AGCCGGGGGC | 1.004 ± 0.002 |
| TGGGGGAAA | 0.988 ± 0.04 |
| AGGGGACTAT | 1 ± 0.013 |
| AGGTTAGTCG | 1.01 ± 0.032 |
| CTGTAAAGAG | 0.99 ± 0.035 |
| CGCGTTCGGA | 1.04 ± 0.015 |
| AAAGGGCTGT | 1.01 ± 0.043 |
| GACTGGTTTT | 1.01 ± 0.033 |
| TTTACTTTAT | 1.06 ± 0.044 |
| CGTCGGAATG | 1.091 ± 0.0045 |
| GCCTGCTGGA | 1.002 ± 0.0023 |
| GTTTTGTTTT | 0.9758 ± 0.0063 |
| GATGATGTTC | 0.9439 ± 0.0072 |
| ACTAAAAGGC | 1.0107 ± 3.2e-05 |
| ATCGGCGTAT | 1.01 ± 0.012 |
| TTCGATCGTT | 1.01 ± 0.043 |
| CGGGGGGTGT | 1.01 ± 0.023 |
| AAAAAATTTT | 1.01 ± 0.023 |
| AAATTTACAT | 1.002 ± 0.0034 |
| ATTTACACGC | 1.02 ± 0.02 |
| GGGGGTTTGG | 0.991 ± 0.03 |
| GCCGAAATGT | 1.06 ± 0.097 |
| GGACAATTTT | 0.977 ± 0.0015 |

| Sequence | switch fluorescence ratio |
| --- | --- |
| CATTTTGTAG | 1.039 ± 0.0043 |
| AGTGTCAGAA | 0.9896 ± 0.0084 |
| CAGTTTTGAG | 0.9917 ± 0.0014 |
| GAAATCGCTG | 0.97 ± 0.072 |
| TGCCCGGGGG | 1.24 ± 0.26 |
| TTGGGGATAT | 0.998 ± 0.039 |
| AACTTTTTTT | 0.98236 ± 0.00064 |
| CGTTAAGTTT | 0.9804 ± 0.0066 |
| ATCTGTACGA | 1.02 ± 0.027 |
| ACCGGTTGCC | 0.974 ± 0.058 |
| TGGGGTTTCA | 1 ± 0.012 |
| GGTTGGGTGT | 1.02 ± 0.027 |
| GGATCCAAAT | 0.947 ± 0.017 |
| TTTTTTCATA | 0.9974 ± 0.0093 |
| TGGGGGGCTT | 0.989 ± 0.023 |
| ATACATTGTC | 0.978 ± 0.074 |
| GGTAAAATTT | 1 ± 0.03 |
| GTTTTGGGTT | 0.977 ± 0.017 |
| CCTGGGGTGT | 1.34 ± 0.28 |
| GGATTATTGG | 1.002 ± 0.0083 |
| CAAGAATTTG | 0.9816 ± 0.0097 |
| TTTTGCTGCC | 1.027 ± 0.002 |
| AAGGGGGTCA | 1.016 ± 0.0063 |
| GCTATTATTA | 0.974 ± 0.045 |
| AAAGAGAGTT | 0.9964 ± 0.0065 |

| Sequence | switch fluorescence ratio |
| --- | --- |
| CAGATCCGGG | 1 ± 0.024 |
| GACTAAATGA | 1.01 ± 0.016 |
| GCGCGGAACG | 0.998 ± 0.047 |
| TACAAGTCGT | 0.98 ± 0.012 |
| ATGTAGGGTT | 1.036 ± 0.0048 |
| GGGGACTTTT | 0.99 ± 0.026 |
| AGGATCCTCG | 0.992 ± 0.018 |
| AATCGGCGGG | 0.975 ± 0.022 |
| TTTATGGCCT | 1.02 ± 0.052 |
| ACAGATAAAG | 0.97 ± 0.045 |
| CGGGCGGTCG | 0.975 ± 0.068 |
| TTCGAGCGAT | 1.78 ± 0.98 |
| GGAATGTGCG | 0.9794 ± 0.0042 |
| GGGGAAGTGC | 1.01 ± 0.055 |
| GGTTATCCGG | 1.01 ± 0.032 |
| AAATGCTTG | 0.983 ± 0.019 |
| AAGGGGGAGT | 0.996 ± 0.028 |
| GTGTTATTTT | 0.998 ± 0.053 |
| TCCTTTAGGT | 0.993 ± 0.053 |
| CCTGGGACCA | 0.975 ± 0.0064 |
| AGGGGGGCTT | 1.01 ± 0.054 |
| GGTACTCGTT | 0.991 ± 0.016 |
| AGGAGCAAGG | 1.26 ± 0.072 |
| AAATCGATGG | 0.9987 ± 0.0023 |
| AAGTTCCGAG | 1.18 ± 0.045 |

| Sequence | switch fluorescence ratio |
| --- | --- |
| ATCAGGGCGT | 0.987 ± 0.032 |
| TCCCATGGCG | 1.04 ± 0.062 |
| AAAAAAAGAT | 1.01 ± 0.039 |
| GTGTTAGTCG | 1.02 ± 0.1 |
| TACTTATGGA | 0.984 ± 0.043 |
| ATTAGCTTAG | 0.987 ± 0.017 |
| TTTTAAAGGA | 1 ± 0.023 |
| ACTGTTTCTC | 0.996 ± 0.022 |
| AAATAACTAG | 0.99 ± 0.015 |
| GAGGTTTTTA | 0.986 ± 0.027 |
| AATTGAAAAA | 1.05 ± 0.069 |
| ATATATGGGA | 0.973 ± 0.022 |
| TCTCTAAAGA | 1.04 ± 0.016 |
| TCAGTGGGGC | 0.9987 ± 0.0093 |
| AGGGGTATTA | 1.002 ± 0.01 |
| TCTTTAATTT | 0.985 ± 0.026 |
| CAAGCAAATT | 1.042 ± 0.0039 |
| GAGTTACTTT | 1.02 ± 0.023 |
| CAATGGGGGT | 1 ± 0.038 |
| ATCTATCTTG | 0.9777 ± 0.0012 |
| TTTGTTGGTG | 1 ± 0.029 |
| TAAAATTTAT | 0.994 ± 0.028 |
| TATAATAGTA | 1.0013 ± 0.001 |
| CGGTTGTTGT | 1.01 ± 0.021 |
| CAGGTAAATG | 0.9961 ± 0.0027 |

| Sequence | switch fluorescence ratio |
| --- | --- |
| TGGGAAAGGA | 1.01 ± 0.051 |
| TGGGAAAAGA | 0.983 ± 0.017 |
| AAAGTGGTTC | 1.04 ± 0.053 |
| TTATGAGTTG | 0.963 ± 0.029 |
| TGAAAGGCTT | 1.06 ± 0.074 |
| GGGAGGCGAT | 0.975 ± 0.051 |
| GGTAGTGTGG | 0.992 ± 0.023 |
| AACGGGGGTC | 1 ± 0.043 |
| TTAATCATAG | 1 ± 0.066 |
| GATGTAGTAG | 1.01 ± 0.042 |
| GTTGGGGCGG | 1.01 ± 0.057 |
| ATAAAAAATC | 0.986 ± 0.017 |
| TTTGGATTAG | 0.9746 ± 0.0037 |
| GCGAGGACAT | 1.04 ± 0.012 |
| GTGGTATGGT | 1.02 ± 0.025 |
| TATTGCTCAC | 1.04 ± 0.02 |
| CAGCAACTCA | 1.65 ± 0.024 |
| AAAACTTAGA | 0.956 ± 0.041 |
| TTTAGGAAGG | 1.017 ± 0.01 |
| TCCTTTAATG | 0.9917 ± 0.0073 |
| TGTTTCAATT | 1.02 ± 0.021 |
| TGTATGTTAG | 0.9477 ± 0.0061 |
| TATGACGGGG | 0.962 ± 0.014 |
| GCATTTGAAA | 0.978 ± 0.011 |
| AAGTTTTGTA | 0.985 ± 0.05 |

| Sequence | switch fluorescence ratio |
| --- | --- |
| TAGTATGTGG | 0.9612 ± 0.0025 |
| GTGGTAAGTT | 0.942 ± 0.026 |
| TTTGCTCTTA | 1 ± 0.056 |
| CCAATTTGCT | 1.02 ± 0.056 |
| AAAATAAGGA | 0.986 ± 0.018 |
| GGGTTATTCT | 1.01 ± 0.049 |
| ACGGGGAGGG | 1.04 ± 0.037 |
| AAGGGAAAGG | 1 ± 0.013 |
| TTTCGTCCAA | 1.04 ± 0.026 |
| TTAGAGCTTT | 0.975 ± 0.021 |
| GTTATTGAGT | 1.007 ± 0.0089 |
| GCGTGAAGTA | 0.997 ± 0.012 |
| CCGGGGAAGG | 1.04 ± 0.0092 |
| AGTGTGAGGC | 1.03 ± 0.028 |
| AGGCCCTAAG | 1.01 ± 0.017 |
| TGCCGGGGGG | 0.99 ± 0.011 |
| AGGCTCCTCT | 1.02 ± 0.025 |
| TGCAAGTTCG | 0.9694 ± 0.0095 |
| CGGTGGTTGA | 1.01 ± 0.053 |
| TGAAATTTAT | 1.01 ± 0.032 |
| GATTTAGAAT | 1.01 ± 0.012 |
| ATCGGTGGTG | 0.9839 ± 0.0058 |
| GTTGATAACT | 1.009 ± 0.0012 |
| TAGCGCTCTA | 0.999 ± 0.024 |
| GGGGCTAGAT | 1.034 ± 0.0076 |

| Sequence | switch fluorescence ratio |
| --- | --- |
| ATCAGGATCG | 1.01 ± 0.014 |
| GAAACCGGAT | 0.966 ± 0.041 |
| TATTTGTAAT | 1.03 ± 0.02 |
| TTACGAAGGG | 1.012 ± 0.0045 |
| GGGGCAAAGG | 1.03 ± 0.075 |
| GATTGCAGGA | 0.9989 ± 0.0039 |
| GGGTATGGGG | 1.01 ± 0.031 |
| GAGGTAATGT | 1.039 ± 0.0025 |
| GGTCTACTAG | 0.999 ± 0.04 |
| AAGAGGGTTT | 1.01 ± 0.05 |
| GTTGGTACGT | 1.01 ± 0.03 |
| ACAGGGTTGG | 1.02 ± 0.03 |
| TTGTGGGTTA | 0.96 ± 0.012 |
| TCGTTGTTAG | 0.992 ± 0.02 |
| TGTGGACTGT | 0.9855 ± 0.0015 |
| TCCGCCATGG | 2.71 ± 0.28 |
| TAGAAACTTT | 1.1 ± 0.14 |
| TGGACGTTGA | 0.994 ± 0.033 |
| AAAATGATGG | 1 ± 0.0073 |
| TAAGTTCCTG | 1 ± 0.026 |
| TCAGGGGCCT | 1.03 ± 0.044 |
| TTATATTGGG | 1 ± 0.033 |
| ATTTTTATTC | 0.991 ± 0.03 |
| TCTATGCGGG | 1.017 ± 0.0013 |
| GATAATGGGT | 0.976 ± 0.042 |

| Sequence | switch fluorescence ratio |
| --- | --- |
| GAACGGGTAC | 1.42 ± 0.17 |
| TCTTATGCGG | 0.998 ± 0.019 |
| TGGGCCAAGC | 0.995 ± 0.025 |
| GAGATTGTGT | 0.9936 ± 0.0048 |
| GAAGGTAGGT | 0.98 ± 0.024 |
| CGAGATATGT | 1.002 ± 0.0038 |
| ATGTAACGAG | 1.01 ± 0.022 |
| GATGTGGGGT | 0.987 ± 0.012 |
| GAAAATCAGC | 0.976 ± 0.071 |
| AAAAGGGCTT | 1 ± 0.012 |
| GTCCCCACAG | 1.103 ± 0.007 |
| TGCGAAGGAG | 0.9794 ± 0.0063 |
| GGGAACGGCC | 1.054 ± 0.0036 |
| TGCCTAAATA | 1 ± 0.031 |
| AGGGAAGTTG | 1.01 ± 0.07 |
| TTATTGTTTT | 1.02 ± 0.065 |
| ATTTGGCTGG | 0.986 ± 0.015 |
| CATGGATGAA | 1.04 ± 0.007 |
| TGTATGGTAG | 0.975 ± 0.025 |
| CTGGCTATTG | 1.022 ± 0.0028 |
| GGGAAAATCA | 0.999 ± 0.02 |
| ATTTGCGGGC | 1.07 ± 0.11 |
| GGTGGCCGGT | 0.987 ± 0.021 |
| CTGGCCGGGC | 1.03 ± 0.022 |
| GTATGGGACG | 1.003 ± 0.006 |

Source: the supplement of paper PMC10126150
